Data taken from paper PMC3819287.

Target: J17 (pH-sensitive anti-PCSK9 mAb, variant of J16) engineered pH-sensitive variant of J16; substitutions not stated in this article (see ref 9)
Assay: KinExA (kinetic exclusion assay), multi-curve global analysis
Settings: pH 7.4; room temperature (approximately 23 C); 154 mM NaCl; PBS pH 7.4 (1 mM KH2PO4, 5.6 mM Na2HPO4, 154 mM NaCl)

KD: 64 pM
Substance: rhPCSK9 (recombinant human proprotein convertase subtilisin/kexin type 9)
